Source: US20230374104A1 (SEATTLE CHILDREN S HOSPITAL DBA SEATTLE CHILDREN S RESEARCH …, published 2023)

How the values were obtained:
[1] = target: soluble PD-L1 (UniProt Q9NZQ7); assay: cell binding (H9 cells); printed as pg/ul
[2] = target: T1, soluble PD-L1 (UniProt Q9NZQ7 19-238, limits assumed); assay: competitive binding assay: mixed H9 cells expressing PD1(WT):CD28 (cell trace violet positive) and PD1(A99L):CD28 (negative), incubated with soluble PD-L1 (0.02 pg/uL to 20 ng/ul) for 30 min, streptavidin-APC, flow cytometry
T1 construct: also called PD1-L1
Description: A competitive binding assay was performed to determine relative binding affinity between PD1 chimeric polypeptides, in particular PD1(WT):CD28 polypeptide, and the PD1(A99L):CD28 polypeptide.
A population of H9 cells containing PD1(WT):CD28 polypeptide were labeled with cell trace violet were mixed with a population of H9 cells containing PD1(A99L):CD28 polypeptide. The cells were then incubated with soluble PD-L1 (0.02 pg/uL to 20 ng/ul) for 30 min and then stained with streptavidin-APC. The two populations were separated out by flow analysis into cell trace violet positive (H9 cells containing PD1(WT):CD28 polypeptide) and cell trace violet negative (H9 cells containing PD1(A99L):CD28 polypeptide) populations. The populations were analyzed for APC positivity.

Sequence of soluble PD-L1 (UniProt Q9NZQ7) (Q9NZQ7 19-238): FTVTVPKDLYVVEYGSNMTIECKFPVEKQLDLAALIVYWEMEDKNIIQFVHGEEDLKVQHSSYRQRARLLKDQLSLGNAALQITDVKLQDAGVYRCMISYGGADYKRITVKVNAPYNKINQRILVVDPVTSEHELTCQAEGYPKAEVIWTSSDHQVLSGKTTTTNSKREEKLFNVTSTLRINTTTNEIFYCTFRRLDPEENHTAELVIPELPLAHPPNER
T1 sequence (Q9NZQ7 19-238 limits assumed): as the sequence (Q9NZQ7 19-238) above

| Kd [1] [µg/mL] | fold binding affinity relative to PD1(WT):CD28 polypeptide [2] [fold] | Molecule |
| --- | --- | --- |
| 0.0033 |  | PD1(A99L):CD28 polypeptide |
| 0.029 |  | PD1(WT):CD28 polypeptide |
|  | ~9 | PD1(A99L):CD28 polypeptide (receptor, Position 99 is not counted from the initiating Met of the encoded open reading frame, where the changed alanine appears to lie near position 132) LDSPDRPWNPPTFSPALLVVTEGDNATFTCSFSNTSESFVLNWYRMSPSNQTDKLAAFPEDRSQPGQDCRFRVTQLPNGRDFHMSVVRARRNDSGTYLCGAISLAPKLQIKESLRAELRVTERRAEVPTAHCPSPLFPGPSKPFWVLVVVGGVLACYSLLVTVAFIIFWVRSKRSRLLHSDYMNMTPRRPGPTRKHYQPYAPPRDFAAYRS |
